Test results from patent publication US9587002B2, “Sequence of nucleotides and peptides GSE 24.2 of dyskerin, which can induce telomerase activity, method for obtaining same, therapeutic compositions and applications thereof” (CONSEJO SUPERIOR DE INVESTIGACIONES CIENTIFICAS, priority 2005, dated 2017).

Experiments:
p38 = test: Activation of p38 by cisplatin in 293T cell lines (Western blot); type: cell-based, human; conditions: 293T cells stably expressing GSE 24.2 vs pLNCX; cisplatin 6 hours
Method: FIG. 2.—Cell viability and activation of the JNK and p38 death pathways in 293T cell lines: pLNCX and 24.2, treated with cisplatin. A) Cell viability. After seeding the 293T cells: expressing the empty vector (pLNCX) and GSE 24.2 (24.2) in 24-well plates, they were incubated with concentrations between 0-100 μg/ml of cisplatin. The cell viability was measured by means of the crystal violet technique after 72 hours of exposure to the drug. The data represent the mean of two experiments performed in quadruplicate. B) Activation kinetics. Subsequently, the activation of JNK and p38 was studied using antibodies that specifically recognise the active forms. As a load control, the levels of JNK-1 were detected.
The pLNCX24-2 plasmid containing GSE of the same name was transfected in a stable manner in the 293T cells and, as a control, the pLNCX empty vector was transfected. After verifying, by means of PCR, that the 24.2 cell line contained this insert (data not shown), the response to cisplatin was studied, creating a viability curve with this drug. […] JNK and p38 are MAPKs that are activated in response to genotoxic agents (Sanchez-Perez et al., 1998).
Western Blot and antibodies. 20 μg of protein were separated in SDS-polyacrylamide gels; subsequently, they were transferred to Immobilon-P membranes (Millipore) by humid transfer. […]

hTERT [1] = test: RT-PCR expression of hTERT in 293T cell lines after cisplatin; type: cell-based, human; conditions: pre-treated 0.5 μg/ml, treated 3 μg/ml cisplatin for 3 and 7 days
Method: FIG. 7.—Expression levels of different genes related to telomerase in 293T cells: pLNCX and 24.2 following treatment with cisplatin. The cells were seeded in 60-mm plates, treated with 3 μg/ml of cDDP following pre-treatment with 0.5 μg/ml of cisplatin for 3 days and, subsequently, collected at the times specified in the figure (3 and 7 days). Following the extraction of RNA, RT-PCR was performed with oligos specific for hTERT, hTR and dyskerin in order to study the expression levels of the messenger RNAs. As a starting RNA control, oligos for the amplification of GAPDH were used.
One of the explanations for the lower sensitivity of pLNCX 24.2 cells to cisplatin could be a change in the levels of some of the components of the telomerase complex. Therefore, the expression levels of different genes involved in the telomerase complex and the effect that cisplatin had on their expression were studied. To this end, the pLNCX and pLNCX 24.2 cells were pre-treated with 0.5 μg/ml and treated with 3 μg/ml of cisplatin for 3 and 7 days. Using oligos specific for hTR, hTERT and dyskerin, the expression levels of these genes and the effect of cisplatin on said expression were studied. […] This change in the sensitivity to cisplatin could explain, at least partially, the difference in sensitivity in the telomerase activity assays.
Expression of genes by RT-PCR. […]

hTERT [2] = test: RT-PCR of hTERT in cells of patients with dyskeratosis congenita; type: cell-based, human; conditions: RT-PCR 24 hours after transfection
Method: (§1) FIG. 10.—Telomerase activity and expression levels of hTERT and hTR in the cells of patients with dyskeratosis congenita and in VA13 cells transiently transfected with the 24.2 plasmid or the pLNCX empty vector. A) Telomerase activity measured by means of the TRAP assay in the cells of patients with dyskeratosis congenita (DC-1, DC-2 and DC-3) and in the carrier parent (DC-C) following electroporation of 45 μg of the pLNCX empty plasmid (−) or the pLNCX 24.2 vector (+) by 15 million cells. B) RT-PCR of the RNA from cells of one of the patients with dyskeratosis congenita, DC3 transfected with the empty vector and DC3 transfected with the 24.2 plasmid, using oligos specific for hTERT and hTR. As a starting RNA control, oligos for the amplification of GAPDH were used. C) Telomerase activity in VA13 cells. The cells were transiently transfected with 16 μg of the control pLNCX empty vector, expressing DKC or the GSE 24.2 peptide per million cells. 24 hours later, the telomerase activity was analysed as described above, using dilutions of the protein extracts from each transfection. D) The expression levels of hTERT and hTR in VA13 cells transfected with 16 μg of the different construct per million cells. RNA levels were detected as described above. GAPDH was used as a control. […] After 24 h of transfection, the luciferase activity was analyzed as described above. […]

hTERT [3] = test: RT-PCR of hTERT in VA13 cells; type: cell-based; conditions: transient transfection
Method: as §1

hTR = test: RT-PCR of hTR in VA13 cells; type: cell-based; conditions: transient transfection
Method: as §1

B1: GSE 24.2: 165-pb cDNA fragment (nucleotides 268 to 433) of human dyskerin, SEQ ID NO1, encoding peptide SEQ ID NO2, expressed from pLNCX plasmid (nucleic acid, listed as Homo sapiens)
DNA: GGTTTCATTAATCTTGACAAGCCCTCTAACCCCTCTTCCCATGAGGTGGTAGCCTGGATTCGACGGATACTTCGGGTGGAGAAGACAGGGCACAGTGGTACTCTGGATCCCAAGGTGACTGGTTGTTTAATCGTGTGCATAGAACGAGCCACTCGCTTGGTGAAG
modifications: expressed from pLNCX plasmid; CDS (1)..(165) Sequence GSE 24.2
- dose of cisplatin required to activate p38 (p38): a greater dose of cisplatin is required to activate both kinases
- hTERT expression after cisplatin in pLNCX 24.2 cells (hTERT [1]): no reduction in expression in the pLNCX 24.2 cells until 7 days of treatment
- hTERT expression levels in dyskeratosis congenita cells (hTERT [2]): an increase in the expression levels was observed
- expression of hTERT RNA in VA13 cells (hTERT [3]): capable of recovering
- expression of hTR RNA in VA13 cells (hTR): capable of recovering
